Test results: the RNAGym collection of RNA variant scans (doi:10.7554/elife.80360)

B1: Twister Ribozyme (parent)
chain: AACACUGCCAAUGCCGGUCCCAAGCCCGGAUAAAAGUGGAGGGGGCGG

Variants of: B1
Test: self-cleavage, relative activity (ratio to wild type); higher = more cleavage; co-transcriptional

First: AACACUGGCAAUGCCGGUCCCAAGCCCGGACAAAAGUGGAGGGGGCGG
Second: AACACUGGCAAUGCCGGUCCCAAGCCCGGAAAAAAGUGGAGGGGGCGG
The self-cleavage of the first is higher: 0.497 for the first, 0.472 for the second.

Compared with AACACUGGCAAUGACGGUCCCAAGCCCGGAUAAAAGUGGAGGGGGCGG, AACACUGGCAAUGGCGGUCCCAAGCCCGGAUAAAAGUGGAGGGGGCGG is lower in self-cleavage: 0.495 for the first, 0.0524 for the second.

Going from AACACUGUCAAUGCCGGUCCCAAGCCCGGAUAAAAGUGGUGGGGGCGG to AACACUGUCAAUGCCGGUCCCAAGCCCGGAUAAAAGUGGCGGGGGCGG, the self-cleavage rises from 0.17 to 0.202.

Going from AACACUGGCAAUGCCGGGCCCAAGCCCGGAUAAAAGUGGAGGGGGCGG to AACACUGGCAAUGCCGGCCCCAAGCCCGGAUAAAAGUGGAGGGGGCGG, the self-cleavage rises from 0.0605 to 0.0751.

First: AACACUGGCAAUGCCUGUCCCAAGCCCGGAUAAAAGUGGAGGGGGCGG
Second: AACACUGUCAAUGCCGGUCCCAAGCCCGGAUAAAAGUGGAGGGGGAGG
The self-cleavage of the first is lower: 0.108 for the first, 0.5 for the second.

First: AACACUGUCAAUGCCGGUCCCAAGCCCGGAUAAAAGUGGAGGGGGGGG
Second: AACACUGUCAAUGCCGGUCCCAAGCCCGGAUAAAAGUGGAGGGGGUGG
The self-cleavage of the first is lower: 0.567 for the first, 0.726 for the second.

Going from AACACUGGCAAUGCCGGUCCCAAGGCCGGAUAAAAGUGGAGGGGGCGG to AACACUGGCAAUGCCGGUCCCAAGACCGGAUAAAAGUGGAGGGGGCGG, the self-cleavage falls from 0.0929 to 0.0886.

Compared with AACACUGUCAAUGCCGGUCCCCAGCCCGGAUAAAAGUGGAGGGGGCGG, AACACUGUCAAUGCCGGUCGCAAGCCCGGAUAAAAGUGGAGGGGGCGG is lower in self-cleavage: 0.863 for the first, 0.0649 for the second.

First: AACACUGUCAAUGCCGGUCUCAAGCCCGGAUAAAAGUGGAGGGGGCGG
Second: AACACUGGCAAUGCCGGUCCCAAGCCCGGAUAACAGUGGAGGGGGCGG
The self-cleavage of the first is higher: 0.308 for the first, 0.121 for the second.

First: AACACUGGCAAUGCCGGUCCCAAGCCCGGAUAAGAGUGGAGGGGGCGG
Second: AACACUGGCAAUGCCGGUCCCAAGCCCGGAUAAUAGUGGAGGGGGCGG
The self-cleavage of the first is lower: 0.276 for the first, 0.553 for the second.

Going from AACACUGGCAAUGCUGGUCCCAAGCCCGGAUAAAAGUGGAGGGGGCGG to AACACUGGCAAUGCAGGUCCCAAGCCCGGAUAAAAGUGGAGGGGGCGG, the self-cleavage falls from 0.534 to 0.0877.

Going from AACACUGUCAAUGCUGGUCCCAAGCCCGGAUAAAAGUGGAGGGGGCGG to AACACUGUCAAUGCGGGUCCCAAGCCCGGAUAAAAGUGGAGGGGGCGG, the self-cleavage falls from 0.768 to 0.0382.

Compared with AACACUGUCAAUGCAGGUCCCAAGCCCGGAUAAAAGUGGAGGGGGCGG, AACACUGGCAAUGCCGGUCCCAAGCCCGGAUAAAAGCGGAGGGGGCGG is lower in self-cleavage: 0.318 for the first, 0.131 for the second.

Going from AACACUGGCAAUGCCGGUCCCAAGCCCGGAUAAAAGGGGAGGGGGCGG to AACACUGGCAAUGCCGGUCCCAAGCCCGGAUAAAAGAGGAGGGGGCGG, the self-cleavage rises from 0.108 to 0.115.

Going from AACACUGGCAAUGCCGGUCCCAAGCCGGGAUAAAAGUGGAGGGGGCGG to AACACUGGCAAUGCCGGUCCCAAGCCCGGAUAAAAGUGAAGGGGGCGG, the self-cleavage rises from 0.0686 to 0.0973.

Going from AACACUGGCAAUGCCGGUCCCAAGCCCGGAUAAAAGUGCAGGGGGCGG to AACACUGGCAAUGCCGGUCCCAAGCCCGGAUAAAAGUGGAGGGGGUGG, the self-cleavage rises from 0.135 to 0.424.

First: AACACUGGCAAUGCCGAUCCCAAGCCCGGAUAAAAGUGGAGGGGGCGG
Second: AACACUGGCAAUGCCGCUCCCAAGCCCGGAUAAAAGUGGAGGGGGCGG
The self-cleavage of the first is higher: 0.0824 for the first, 0.07 for the second.

First: AACACUGGCAAUGCCGUUCCCAAGCCCGGAUAAAAGUGGAGGGGGCGG
Second: AACACUGGCAAUGCCGGUCCCAAGCCCAGAUAAAAGUGGAGGGGGCGG
The self-cleavage of the first is lower: 0.0532 for the first, 0.0928 for the second.

Compared with AACACUGUCAAUGACGGUCCCAAGCCCGGAUAAAAGUGGAGGGGGCGG, AACACUGUCAAUGUCGGUCCCAAGCCCGGAUAAAAGUGGAGGGGGCGG is higher in self-cleavage: 0.63 for the first, 0.791 for the second.

Compared with AACACUGUCAAUGGCGGUCCCAAGCCCGGAUAAAAGUGGAGGGGGCGG, AACACUGGCAAUGCCGGUCCCAAGCCCGGAUAAAAGUGGAGGGCGCGG is higher in self-cleavage: 0.0673 for the first, 0.177 for the second.

Going from AACACUGGCAAUGCCGGUCCCAAACCCGGAUAAAAGUGGAGGGGGCGG to AACACUGGCAAUGCCGGUCCCAACCCCGGAUAAAAGUGGAGGGGGCGG, the self-cleavage rises from 0.203 to 0.993.

Going from AACACUGUCAAUGCCGGUCCCAAGCCCCGAUAAAAGUGGAGGGGGCGG to AACACUGUCAAUGCCGGUCCCAAGCCCAGAUAAAAGUGGAGGGGGCGG, the self-cleavage falls from 0.469 to 0.446.

Compared with AACACUGGCAAUGCCGGUCGCAAGCCCGGAUAAAAGUGGAGGGGGCGG, AACACUGGCAAUGCCGGUCACAAGCCCGGAUAAAAGUGGAGGGGGCGG is higher in self-cleavage: 0.0475 for the first, 0.11 for the second.

First: AACACUGGGAAUGCCGGUCCCAAGCCCGGAUAAAAGUGGAGGGGGCGG
Second: AACACUGGUAAUGCCGGUCCCAAGCCCGGAUAAAAGUGGAGGGGGCGG
The self-cleavage of the first is higher: 0.107 for the first, 0.0635 for the second.

Going from AACACUGUCUAUGCCGGUCCCAAGCCCGGAUAAAAGUGGAGGGGGCGG to AACACUGUCCAUGCCGGUCCCAAGCCCGGAUAAAAGUGGAGGGGGCGG, the self-cleavage rises from 0.582 to 0.755.

First: AACACUGUCGAUGCCGGUCCCAAGCCCGGAUAAAAGUGGAGGGGGCGG
Second: AACACUGUCAAUGCCGGUCCCAAGCCCGGAUAAAAGUGGAGGGGGCGG
The self-cleavage of the first is lower: 0.655 for the first, 0.777 for the second.

Compared with AACACUGGCAAUGCCGGUCCCAAGCCCGGAUAAAAGUGGAGAGGGCGG, AACACUGGCAAUGCCGGUCCCAAGCCCGGAUAAAAGUGGAGCGGGCGG is higher in self-cleavage: 0.131 for the first, 0.221 for the second.
